# Patent US20120093799A1, “RECOMBINANTLY MODIFIED PLASMIN” (priority 2007, published 2012)
# Where “and” joins values, the source holds several entries; their conditions need not be identical. Equal values may be shown once.
# T1: α2-antiplasmin (Homo sapiens, UniProt P08697)
# T1 sequence (P08697 40-491): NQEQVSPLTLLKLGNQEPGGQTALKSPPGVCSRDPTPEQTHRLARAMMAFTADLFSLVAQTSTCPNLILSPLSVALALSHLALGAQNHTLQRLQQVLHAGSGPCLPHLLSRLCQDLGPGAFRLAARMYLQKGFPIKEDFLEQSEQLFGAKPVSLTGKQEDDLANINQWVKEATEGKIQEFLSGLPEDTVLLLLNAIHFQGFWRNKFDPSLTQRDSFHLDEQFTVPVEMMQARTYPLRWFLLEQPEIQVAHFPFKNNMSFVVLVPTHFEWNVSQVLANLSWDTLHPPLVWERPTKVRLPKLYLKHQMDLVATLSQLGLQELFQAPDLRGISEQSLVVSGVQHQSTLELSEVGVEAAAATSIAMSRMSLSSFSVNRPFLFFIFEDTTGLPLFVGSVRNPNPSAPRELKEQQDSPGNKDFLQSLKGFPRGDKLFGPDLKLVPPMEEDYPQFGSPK
# B1: (TAL6003)-plasminogen: recombinant plasminogen deletion mutant, single kringle plus serine protease domain, amino acid sequence SEQ ID NO: 2, expressed in E. coli (protein)
# chain: MRDVVLFEKKVYLSECKTGNGKNYRGTMSKTKNGITCQKWSSTSPHRPRFSPATHPSEGLEENYCRNPDNDPQGPWCYTTDPEKRYDYCDVPQCAAPSFDCGKPQVEPKKCPGRVVGGCVAHPHSWPWQVSLRTRFGMHFCGGTLISPEWVLTAAHCLEKSPRPSSYKVILGAHQEVNLEPHVQEIEVSRLFLEPTRKDIALLKLSSPAVITDKVIPACLPSPNYVVADRTECFITGWGETQGTFGAGLLKEAQLPVIENKVCNRYEFLNGRVQSTELCAGHLAGGTDSCQGDSGGPLVCFEKDKYILQGVTSWGLGCARPNKPGVYVRVSRFVTWIEGVMRNN
# modifications: Polypeptide having a single N-terminal kringle domain homologous to a kringle domain of a native human plasminogen
# B2: (TAL6003)-plasmin: two-chain active enzyme obtained by streptokinase activation of (TAL6003)-plasminogen (protein)
# chain: B1 chain
# modifications: Polypeptide having a single N-terminal kringle domain homologous to a kringle domain of a native human plasminogen
# B3: mini-plasmin: activated mini-plasminogen; domain composition K5-SP (kringle 5 and serine protease domain) (protein)
# chain: VAPPPVVLLPDVETPSEEDCMFGNGKGYRGKRATTVTGTPCQDWAAQEPHRHSIFTPETNPRAGLEKNYCRNPDGDVGGPWCYTTNPRKLYDYCDVPQCAAPSFDCGKPQVEPKKCPGRVVGGCVAHPHSWPWQVSLRTRFGMHFCGGTLISPEWVLTAAHCLEKSPRPSSYKVILGAHQEVNLEPHVQEIEVSRLFLEPTRKDIALLKLSSPAVITDKVIPACLPSPNYVVADRTECFITGWGETQGTFGAGLLKEAQLPVIENKVCNRYEFLNGRVQSTELCAGHLAGGTDSCQGDSGGPLVCFEKDKYILQGVTSWGLGCARPNKPGVYVRVSRFVTWIEGVMRNN
# B4: micro-plasmin: plasmin species lacking all five kringles (protein)
# chain: APSFDCGKPQVEPKKCPGRVVGGCVAHPHSWPWQVSLRTRFGMHFCGGTLISPEWVLTAAHCLEKSPRPSSYKVILGAHQEVNLEPHVQEIEVSRLFLEPTRKDIALLKLSSPAVITDKVIPACLPSPNYVVADRTECFITGWGETQGTFGAGLLKEAQLPVIENKVCNRYEFLNGRVQSTELCAGHLAGGTDSCQGDSGGPLVCFEKDKYILQGVTSWGLGCARPNKPGVYVRVSRFVTWIEGVMRNN
# B5: plasmin: native full-length human plasmin with five kringle domains and serine protease domain (protein, UniProt P00747 20-580; P00747 581-810, looked up)
# Plasmin heavy chain A: EPLDDYVNTQGASLFSVTKKQLGAGSIEECAAKCEEDEEFTCRAFQYHSKEQQCVIMAENRKSSIIIRMRDVVLFEKKVYLSECKTGNGKNYRGTMSKTKNGITCQKWSSTSPHRPRFSPATHPSEGLEENYCRNPDNDPQGPWCYTTDPEKRYDYCDILECEEECMHCSGENYDGKISKTMSGLECQAWDSQSPHAHGYIPSKFPNKNLKKNYCRNPDRELRPWCFTTDPNKRWELCDIPRCTTPPPSSGPTYQCLKGTGENYRGNVAVTVSGHTCQHWSAQTPHTHNRTPENFPCKNLDENYCRNPDGKRAPWCHTTNSQVRWEYCKIPSCDSSPVSTEQLAPTAPPELTPVVQDCYHGDGQSYRGTSSTTTTGKKCQSWSSMTPHRHQKTPENYPNAGLTMNYCRNPDADKGPWCFTTDPSVRWEYCNLKKCSGTEASVVAPPPVVLLPDVETPSEEDCMFGNGKGYRGKRATTVTGTPCQDWAAQEPHRHSIFTPETNPRAGLEKNYCRNPDGDVGGPWCYTTNPRKLYDYCDVPQCAAPSFDCGKPQVEPKKCPGR
# Plasmin light chain B: VVGGCVAHPHSWPWQVSLRTRFGMHFCGGTLISPEWVLTAAHCLEKSPRPSSYKVILGAHQEVNLEPHVQEIEVSRLFLEPTRKDIALLKLSSPAVITDKVIPACLPSPNYVVADRTECFITGWGETQGTFGAGLLKEAQLPVIENKVCNRYEFLNGRVQSTELCAGHLAGGTDSCQGDSGGPLVCFEKDKYILQGVTSWGLGCARPNKPGVYVRVSRFVTWIEGVMRNN
# modifications: plasmin
# notes: native full-length human plasmin with five kringle domains and serine protease domain
# Legend:
# [1] = binding of ε-ACA measured by changes in protein fluorescence; settings: 50 mM Tris, 20 mM NaCl, pH 8.0, 25° C.; 0-50 μM ε-ACA
# Method: To further confirm the functionality of kringle 1, the binding of ε-ACA to (TAL6003)-plasminogen was measured by monitoring the associated changes in protein fluorescence as described by Matsuka et al., Eur. J. Biochem. 190: 93-97 (1990) and Douglas et al., J. Biochemistry 41: 3302-3310 (2002), all incorporated herein by reference. Binding of ε-ACA to kringle 1 of (TAL6003)-plasminogen results in a decrease in fluorescence, likely due to quenching of the tryptophan residues which are part of the lysine-binding site.
# To monitor this process, 4 μL to 16 μL aliquots of a concentrated solution of ε-ACA were added to 2 mL of 5 μM (TAL6003)-plasminogen in 50 mM Tris buffer containing 20 mM NaCl, pH 8.0, 25° C. The fluorescence was monitored at an excitation wavelength of 298 nm and an emission wavelength of 340 nm in a FLUOROMAX fluorescence spectrophotometer (Jobin Yvon, Inc., Edison, N.J.); after each addition of ε-ACA, the solution was allowed to equilibrate until no further changes in fluorescence were observed.
# The resulting fluorescence values were corrected for dilution and plotted versus the concentration of ε-ACA over a range of 0-50 μM ε-ACA.
# [2] = molecular target: fibrin; test: fibrin binding microtiter plate assay (activation by tPA and resulting clot lysis)
# Method: One property of plasminogen is its ability to bind fibrin. In order to determine whether (TAL6003)-plasminogen retains the ability to interact with fibrin, its fibrin-binding properties was tested in a microtiter plate assay in which binding of (TAL6003)-plasminogen to fibrin was assessed by its subsequent activation by tPA and resulting clot lysis. For this purpose, 100 μL of 5 mg/mL fibrinogen was polymerized with thrombin in each well of a microtiter plate. Various concentrations of (TAL6003)-plasminogen was added on top of the fibrin clots and incubated for 1 hour at 37° C. The plate was washed extensively with PBS while the fibrin clots are still intact and attached to the wells. After washing, a 0.1 mg/mL solution of tPA was added to each well and the plate was incubated 2 hours at 37° C. As a result, some of the clots were completely dissolved and some were partially dissolved, while wells with very low amounts of (TAL6003)-plasminogen and control wells remained practically intact. The degree of fibrinolysis was monitored by measuring the 280 nm absorbance of remainders of the initial clots reconstituted in 1 M NaOH. The absorbance values were plotted as a function of (TAL6003)-plasminogen concentration.
# [3] = binding to lysine-SEPHAROSE 4B column, elution with ε-ACA gradient
# Method: FIG. 7 is a chromatogram showing binding of (TAL6003)-plasminogen to lysine-SEPHAROSE™ 4B: 0.5 mg of purified (TAL6003)-plasminogen was applied on the lysine-SEPHAROSE™ 4B column (1×3 cm) equilibrated with Tris-buffered saline, pH 7.4. Bound protein was eluted from the column by a 0-20 mM gradient of ε-aminocaproic acid (ε-ACA) as a single peak. The absorbance at 280 nm and the concentration of ε-ACA, as a function of the effluent volume are presented on the graph.
# To confirm the functionality of kringle 1, we determined the binding of TAL6003-plasminogen to lysine-SEPHAROSE™ 4B.
# [4] = stability and formulation pH; type: physicochemical
# From the text: As shown previously for plasmin by Novokhatny et al., J. Thromb. Haemost. […] When mixed with plasma or neutral pH buffers, (TAL6003)-plasmin is quickly re-activated.
# [5] = amidolytic activity with plasmin substrate S-2251, steady-state kinetics; type: biochemical; settings: substrate S-2251, PBS buffer, pH 7.4, 25° C.; for kcat: for (TAL6003)-plasmin corrected for percent active sites
# Method: The amidolytic activity of (TAL6003)-plasmin was examined using the plasmin substrate D-Val-Leu-Lys-p-nitroanilide (S-2251) (DiaPharma, West Chester, Ohio).
# (§1) Correcting kcat for percent active sites, a kcat of about 725 min^−1 was determined. This value was very close to the value determined in the same assay for full-length plasmin, 820±23 min^−1 and for micro-plasmin (lacking all five kringles), 795±24 min^−1.
# [6] = as above; type: biochemical; settings: S-2251, PBS, pH 7.4, 25° C.; before correction for percent active sites
# [7] = molecular target: T1, α2-antiplasmin; test: rate of inhibition by α2-antiplasmin (method of Wiman and Collen, S-2251 activity at time points); type: biochemical; settings: 22° C. in PBS buffer, pH 7.4
# Method: The rate of inhibition of (TAL6003)-plasmin by α2-antiplasmin was determined to be 1.8±0.06×10^7 M^−1 s^−1 using the method of Wiman and Collen (Wiman, B. and D. Collen, Eur. J. Biochem. 84: 573-578 (1978)) in which plasmin and α2-antiplasmin are mixed then assayed for S-2251 activity at specific time points (Table 3).
# Literature values are taken from Anonick, et al., Thrombosis Res. 59: 449 (1990). All rates were measured according to the methods published in Anonick, et al.
# [8] = pNPGB active site titration; type: biochemical
# Method: as §1
# [9] = molecular target: T1, α2-antiplasmin; settings: from Anonick et al., cited from earlier work
molecule,measurement,setting,value
B1,Kd,[1],~19 µM
same,EC50,"[2]; 1 hour at 37° C. on fibrin clots, then tPA 2 hours, read-out: C50 of fibrin binding",~0.3 µM
same,fibrin binding affinity,[2]; relative to full-length plasminogen,comparable to that of full-length plasminogen
same,ε-ACA concentration at elution peak from lysine-SEPHAROSE,"[3]; 0-20 mM ε-ACA gradient, single peak",about 4 mM
same,binding to lysine-SEPHAROSE 4B,"[3]; column equilibrated with Tris-buffered saline, pH 7.4",bound to lysine-SEPHAROSE™
B2,storage stability in the final formulation,"[4]; pH 3.6, acidified with acetic acid-saline, low buffering capacity",allows safe storage of active plasmins for prolonged periods of time
same,stability at physiological pH,[4]; physiological pH,prone to auto-degradation
same,Km,[5],141 µM
same,kcat for the preparation,[6],about 725 min−1
same,rate of inhibition by α2-antiplasmin,[7],1.8±0.06×10^7 M^−1 s^−1
same,percent of functional active sites,[8],67%
B3,Km,[5],160 ± 30 µM
same,kcat,[5],12.8 ± 1.17 s⁻¹
same,rate of inhibition by α2-antiplasmin,[7],2.4×10^5 M^−1 s^−1 and 2.4 ± 0.5 × 10^5 M^−1 s^−1
B4,Km,[5],145 ± 13 µM
same,kcat,[5],13.2 ± 0.4 s⁻¹
same,rate of inhibition by α2-antiplasmin,[7],1.8 ± 0.2 × 10^5 M^−1 s^−1
B5,Km,[5],220 ± 9 µM
same,kcat,[5],13.7 ± 0.383 s⁻¹
same,kcat,[5]; listed as full-length plasmin,13.7 ± 0.383 s⁻¹
same,"rate of inhibition by α2-antiplasmin (literature value, table)","[9]; 22° C. in PBS buffer, pH 7.4",2.5 ± 0.5 × 10^7 M^−1 s^−1
same,"rate of inhibition by α2-antiplasmin (reported value, text)",[9]; Thrombosis Res. 59: 449 (1990),2.5×10^7 M^−s^−1
